Reference: patent publication US20090089894A1 (IOWA STATE UNIVERSITY RESEARCH FOUNDATION, published 2009)

Target: T1, pB42AD-T, SV40 large T-antigen (87-708 aa) in the pB42AD vector (SV40, UniProt P03070 87-708)
T1 construct: range 87-708; positive control prey
Assay: yeast two-hybrid positive control (FIG. 2)

T1 sequence (P03070 87-708 limits assumed): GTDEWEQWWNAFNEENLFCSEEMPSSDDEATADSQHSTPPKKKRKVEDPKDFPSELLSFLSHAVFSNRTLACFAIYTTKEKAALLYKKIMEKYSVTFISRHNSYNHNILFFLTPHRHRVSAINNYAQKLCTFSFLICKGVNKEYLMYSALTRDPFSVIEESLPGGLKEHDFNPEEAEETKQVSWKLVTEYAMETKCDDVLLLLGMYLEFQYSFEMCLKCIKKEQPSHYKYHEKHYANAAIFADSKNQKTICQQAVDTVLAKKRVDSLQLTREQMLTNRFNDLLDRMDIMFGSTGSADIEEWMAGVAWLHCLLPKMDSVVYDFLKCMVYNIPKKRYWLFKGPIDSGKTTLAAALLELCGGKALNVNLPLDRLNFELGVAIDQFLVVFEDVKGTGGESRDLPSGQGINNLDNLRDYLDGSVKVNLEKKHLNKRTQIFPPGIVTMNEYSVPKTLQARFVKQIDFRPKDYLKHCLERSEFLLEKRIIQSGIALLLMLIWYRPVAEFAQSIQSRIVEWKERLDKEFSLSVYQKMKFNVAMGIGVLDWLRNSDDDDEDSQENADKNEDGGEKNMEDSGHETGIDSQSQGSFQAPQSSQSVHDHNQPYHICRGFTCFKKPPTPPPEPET

B1: pLexA-53, murine p53 (72-390 aa) in the pLexA vector (other)
chain: PVTETPGPVAPAPATPWPLSSFVPSQKTYQGNYGFHLGFLQSGTAKSVMCTYSPPLNKLFCQLAKTCPVQLWVSATPPAGSRVRAMAIYKKSQHMTEVVRRCPHHERCSDGDGLAPPQHLIRVEGNLYPEYLEDRQTFRHSVVVPYEPPEAGSEYTTIHYKYMCNSSCMGGMNRRPILTIITLEDSSGNLLGRDSFEVRVCACPGRDRRTEEENFRKKEVLCPELPPGSAKRALPTCTSASPPQKKKPLDGEYFTLKIRGRKRFEMFRELNEALELKDAHATEESGDSRAHSSYLKTKKGQSTSRHKKTMVKKVGPDSD
notes: range 72-390; positive control bait
Does B1 bind?
Result: binds
